# Test results from the domain aggregation screens of Martell et al. (2025).
# Assay: soluble fraction after stress (log2 fold change); higher = more stays soluble; pooled small domains, quantitative proteomics
# Settings: stress: 50 degC
# Procedure, shortened: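 Pooled custom libraries of small protein domains were each held under stress at 50°C. The read-out, high-throughput quantitative proteomics, tracked how much of each protein stayed soluble. This is reported as a base-two log fold change used to indicate aggregation propensity. Higher values mean more protein remains in solution.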
row,Sequence,soluble fraction (log2)
1,HMIVVMKTSASERDLQEVIARIEQFGFATRSIVGSERATVSVLGAPLPDSLQEALERMPGVEEVVRITK,-0.344
2,HMGTHDAGTRFFDNLDSLLQNRDATRADVLAVYLLAVSLGFRGKHRSVSSAPQIAHYRNQAYVTLFQ,0.546
3,HMNIQKYFAGREQFIELLEAVGIRTLEQFASADPSTVLPELHQAKRMLKLQTEIPSAPVFREWVNQALS,-0.237
4,HMRLLGEPLAGRLKKDVPVVTGRSTESKAIAQFFELRWSHLPDPEARTISVASGRIDFMDVGATRFSLR,0.054
5,HMTAKQDLDSIYRHLVATRKSIAENPKMVSSIDDPQALIKMLDYAIQYFYTDKRDEALAVLEKNEEQLNFR,-0.117
6,HMDKEKLQEKLLQIFEAEPQKKFQVQDLVKVLDMEGAGQFKFVVQALADLEHNKQIKLSEDDTFSLIVKE,0.0616
7,HMTSGPAWPALSAQQRSVLAPLQRDWHTIDAARKAKWLEVAARFPSMPAEERQRVQERMAEWA,-0.0518
8,HMGRTVKGVNFVGLRDAGDPVDLAEIYSKEGADELVFLDITATHEKRKTLLDLVTRVAERINIPFTVGGGI,-0.015
9,HMSLNNAHNTIFPRIIELMEMKQLENVLLIGGGIIPRKDIESLESSGVTKLYGPGTPVKETIEFITNWVK,-0.268
10,HMNHHTEQQLKALSNKVKDHRMRMRLLAVAHFKAGKNKADVARTLNVSRRMVNEWVANYFKGGVSALES,-3.6
11,HMEGTEVTTEPPGAQIEFDGKQFGPTPTRVPGLAAGKQFRITLAGYQEAKPKLKNNPKEGEPLSFTLTAI,0.406
12,HMSMVGSVNKQGRPFALLRVDNLLYQVKVGDYLGQNYGRITQIDETQIALREIVQDAAGEWIERPGVLQL,0.00588
13,HMNNEISINGNKIYFNKNISKVFIYDISGKLIKHKNNFNNNFIDLSEFNSAFYIIKALDINENYTTKKIFL,-1.58
14,HMDGKPSLIISNGQINYKEMVKLRYSLEDLLFQLRQNSIKSIEEVEYAFLESNGKLSIFPYNFL,-1.51
15,HMDDGLTRLTPRENEVLELMAQGRSNTAIAERLVLSYGAVEKNVSSIFTKLDLPLDAGDHRRVLAVLRRLN,-0.688
16,HMNDNFTPDDLNRLARIKDLPQAKKYALELISNKSAKPMKPEKVRWFANQLQKKKSVMDITKMMYDLLLA,-0.0441
17,HMALSTRERMSFVLEVLKEKEFIPFVDLFSPEEGRAGVVVTFLALMELMKDSLIEIVQTKNFGEIHVRARL,-0.218
18,HMDPLGHVIKKKRLQLGMTLRDLAAKAGVHHATIDRIETDQFKVVDPSTLVKIAEALHLDQLYLLSLN,-0.0139
19,HMNDMPELLSIKEASQWATEYLNKNVTTSNIAYLIQYGRIRKIGNNGSTQVLKDDLVKYYKDQK,-0.139
20,HMLKPKDLHLGDSVRVLSLNLKGTVSSLPDTKGFLFVQMGIMRSKLHISDLQLIDEPVITAP,-0.128
21,HMDEFEEGVITYFNSEKGFGFIRESKTKQSVFVHSKQLSSPVQLNDKVKFIVNKGLKGLEATEVSVI,-0.235
22,HMDLYIILGLERSATLSDVRRAYRRLARKYHPGINPGDRNSASVFTRVSEAYQVLSDPEQRRRYDSR,-2.81
23,HMASPRVWKDASSGRTLTGEFVELTKDAVKVRRANGDVVSLPLSRLTEEDITFAKGASETGGA,0.146
24,HMEISLAETLRSSLHMILGWYQNTGDKKLLELIRLHLQAYVNTGNSLNPEMEEIRAALETLGEGKEAFRP,-0.999
25,HMQISGIHLYERRITKDDEWAERKLSEISLAGSLVILILRNEHVVIPNGETVLKENDLLYISD,-2.93

row,Sequence,soluble fraction (log2)
1,HMVEMSNMELVREQYFQNLIYNVGDWVKDSKTEITGEVVKRGTNYLTIVQEDFTLHKVWLEDAESME,-0.581
2,HMQEPVYRPVFPGMTDADRQSAMEALKEGGFSPRLNRQTGQLEVDASGYHEAKIYLASQGIPAE,0.124
3,HMDGIRLYPGLMIEHKNFGRGQVVSVNRERGTFTAFFGKNGTRTLTIQILKTDTVRPLASQKAGK,0.212
4,HMSKAYLSVESNISGARVFVDGQKEGTTPLSDVLLSAGEHLILVKKQGYETYQKRVRFQKGRSMSLYVDLS,-0.159
5,HMEETLEELGKEYESAFTMYEKLWSYYKKQNYHQVNHKRSERYEILLGFVREYHPEKVEYYRELL,0.0169
6,HMSEFAYPISLNGKTKFNLALSLALTKEEIEKEVLANADVQKFLNGQTPKKLIVVPGKIVNVV,-0.322
7,HMALDLNEDEKLLVELIEKAGGTAGLGELKEASGLSGKKWDKTTKNLSKEGLIKVEKNESGLWVHLT,0.153
8,HMDTNPKVIITMDGVNVRSSASTGSDILFIAEKGEEYELISESGDFYKILYEGNKEGYVASWLVETSE,0.0987
9,HMNIEANLEDILRRAMPSAAKLILENSLNINKIIGTGKEGRITKGDVLLYLKDKNLILENILN,-0.173
10,HMEIRNLMPILSHFLNENDIKLSRESVNLVLDRASGNRENLNNELKKIHDYSFSNKIIDFETIKKLTNLG,-0.194
11,HMDPEEQIQSREIWEAVERALDGMQEKGRRVVIALLEGQTQLEVSRAAGISQPLISYYLKSFRTKVRTELG,-0.48
12,HMNPHIQFWSLLRRQPDYNSAYKDELKAMFVWQWSGEKTESLNEFYKTDPYRYKSMLMDMRNRAL,-3.15
13,HMDVRLAKVYMLPANPYLRFIEFDDGTHGKFRAKPGKFGLGSVVKVKREDGDMYTLEGNYDGKDRL,-0.555
14,HMDLLKANNLSQINVDKLTDEEILKYSQQLKQSGLTESQAEQIAIARGMPATEIAKLKQRLISLTNMQ,0.133
15,HMALSGTVQNFAGGIMILIFRPFKTGDYIEALGYFGKVSEVNIVSTKLRTFDNKTIILPNGALSNGNIQNY,-0.889
16,HMDAAEVEATARAMLRRSALNLLAQREQTAFELKQKLSRRFPEQAALLDEVIERLQEQGLQDDTR,-0.102
17,HMKNDIQLKHDVEEELQWDPAVDASRFAVQAKDGVVTLSGGVDTFADKHAAEEAIRRVAGVTALVIHVDV,-0.107
18,HMGVDMGPAKYVGQKALTATEMRPAGKIQIGQTVFDAVSVGPFIGARKAVKVIKYENAQLYVEPE,0.00597
19,HMKHKGILTTWNDDRGFGFITPKEGKEPVFVHISAFARGQGRPVLNASLTYRLVRDDQQRPRAEAVRL,-1.15
20,HMNKPLFVYPNPVHQGKINLSKATNFMVVDLLGQTVNKTNYGKDFSIDNLPNGVYFIKTTEGEIIKFMK,-0.696
21,HMAVLGIQPVFHRSTGQTVYKSSVNTAKGRVYLGLFPTLTEALEIKLKYMQEHGHTKGITNLTNKLKEL,-1.17
22,HMDLGLTDDQRLVYGLLSPTVPRSSGELLGMVDFGRSKLSRILKELIELGQVFTVGVGRGLKYKRG,-0.307
23,HMGKSPLDALSAREKEVLTYITRGVSINDIAAVLYLSPKTVSTHKTNLMQKLGIENNADLILFGVNHGLND,-0.513
24,HMTSVQDLLRNGDRVGYQNGSTVKYWLEEMGFHKKDLLGYVTVEEYAEALQRGSGNGGVSAIVD,-0.961
25,HMTQGIDQISFSQFLDKVQSGEVTDVRISGSDITGTLKTGGKFETVAGNYEKIWDLLRENKVVFVVDSP,0.0436

row,Sequence,soluble fraction (log2)
1,HMDVLIQEIGKRLRIQRLAMGLTQEELAKRAGISLSTLKLMEQQGKGSLQRLAKVAVVLDLDGDLRGLF,-2.42
2,HMGKAMIDWEREQSILRILLRQKALTTEQAREVYQDGMREDLSALEMGVQRGYFTHEQLREATGGE,0.0179
3,HMRYNPETTAGRRGLIIKMLDEYGQVNVNELSRYFNVSEVTVRNDLAYLERKNLLIRARGGAIKTE,-0.941
4,HMVDQAFQTQLKNIQARTGKNLDELYAFIRASGLVKHGEIRDLAKRELSLGHGDANTLAKFYLESLAAAA,0.269
5,HMSSKFKIVGEILSIKKSDILYIIEILSNNEVVKATAVEDEIKDLKIGDKILLSSKAFNPIVNK,-0.487
6,HMGGPTARQMEVLSLIAQGLPNKRIADELGIAERTVKLHITALLDSLGARNRTHLLVVARERGM,-2.21
7,HMEGNLVEIFEDAFGRTMSTMDIEYINQFKRTGYDDEMIVSALREAVKSNALSFRYIERVLENWAHS,-0.202
8,HMESAQLIINVAGKVSNPGVYQLPQGSRVVDAIEAAGKQLKGVDISDINLARVLVDGEQILVGGV,0.247
9,HMDILPEGNYKVNYDVIDEVGNIVANKNDIVVTEKSIKPLNTILGIDLYEVIHSQTGKYFTINGDNLTN,-0.00162
10,HMRQPRGQRVTVREASSLLPFLFAHLTDRSRSAVKSLLRHGQIWVNGRVTTHFDMPLRPGDTVLISHERG,-0.347
11,HMTNQEFNAAFKPFLDYFPTTEMTKEKINIYYLALSDLSKEQLGSAFISMVKNRVYKNFPQVAEIRQYATN,-0.0953
12,HMETTVPNVLNHNISTGEILLKENNLNFRIQYIPSNKDEAVGTIINSVPTSGEKVKFGTVVDLKVL,0.0465
13,HMKAMIIVMKPGADMATISKVLKTIETNGFKPHLSKGEETTVIGVIGDERKLNPDIFSTLEGVERIVPVA,0.255
14,HMDPEQLKIAINTKMPFGKYSGRPLLLLPEPYLVWFKQQGFPDSKLGSQLAMMYEVKLNGLEQMLMPLL,-0.673
15,HMNTVAGAISDLSFKVRGSEDIEKLNRLKALSIQAKLDVQGQEEAERLISELEAKYGSLGMTVDKVSGKIA,0.158
16,HMDAEETLGARLRRLRQARGLSLAGLAQAAGLSKPSIWAWENGTTAPRRTSLLALARALDVPEQQLTGV,-0.358
17,HMNMAEETLDTAAKILKAAEEEFMEKGYGNAKMMSIAARAGVSHSMLHYYYRSKGKLFQMIFDEKA,-1.4
18,HMNPLHYKAAHWVREGLFDDLKSFVELETRINSIFEEKDRGDVFEIFIEGYRSFSKWRALVLRLA,-0.28
19,HMEIPRYRLIGADGGRMVDLGEGQGAIPPVDVKRGMIDMPGLGKGYYTADGKSAVITNADGSKTRVL,-0.034
20,HMREVPHGEYEVKIEKLELVESKAGDPMVTVWFKVLAGDYKGSMIFMNQVITKGFQIHIMNEFLR,-0.256
21,HMGVNNDIIKHRKLEFMIEMLPDTFTRKEANEIGEGLGISLATLTRYLSSDAFERTGHGRYRKKD,-1.08
22,HMTQEMPAEVKKKADAFNNAMDEENYTEAKAILAELEQNTAPSYPLLLQMQTRYAFETASWE,-0.00382
23,HMLPAGAAAPLEDGSAPEGYTVKGNADSGLYHEPDGRWYDATVAEFWFKTAADAEAAGFRKAGS,0.121
24,HMVTPAQQARDTLLGALVGLARATTSEPKTDDTDVVLNAGLRLAAQPDAPEERLQRMLAIVQTEKHRV,0.116
25,HMISDAEWTIMKALWQSEDKKMTLKEIAEAVADSGWSYTTVRTMVGRLVEKEAIEADESHPRNFRYSAA,-1.23
